This is an account of results in publication PMC4746701, “Crystal structure of SEL1L: Insight into the roles of SLR motifs in ERAD pathway” (Scientific Reports, 2016).

Series [1] concerns the target T1, MBP-SEL1L SLR-C (SLR motifs 10 and 11, residues 639–719) (Mus musculus, UniProt Q9Z2G6 639-719).
T1 construct: SEL1L, Mus musculus, residues 639-719 (SLR-C); source: purified; not shown: MBP, N-terminal, kept
In words: pull-down; 400 μg GST-HRD1 luminal fragment on glutathione sepharose 4B beads, 100 μg MBP-SEL1L protein; 150 mM NaCl, 25 mM sodium phosphate pH 7.5, 5 mM DTT; 4 °C, 15 minutes; SDS-PAGE, Coomassie. As to conditions: both partners purified.

Series [2] concerns the molecule itself. Nature of the series: cross-linking; glutaraldehyde (0.005%) or dimethyl suberimidate (0.3 mM), products analysed by SDS-PAGE.
Series [3] deals with the molecule itself. Nature of the series: SEC; Superdex 200; 25 mM Tris, 150 mM NaCl, 5 mM DTT, pH 7.5. On the technique in general: SEC sorts molecules by how far they enter the pores of the column.

Residue numbers refer to the chain shown, from its start. Numbers in names are those of the source.

T1 sequence (Q9Z2G6 639-719): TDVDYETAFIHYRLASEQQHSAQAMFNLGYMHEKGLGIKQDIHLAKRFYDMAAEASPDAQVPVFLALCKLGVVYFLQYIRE

B1: GST-HRD1 N-terminal luminal loop (residues 21–42) (domain or fragment, mouse, UniProt Q9DBY1 21-42, looked up)
chain: HAYYLKHQFYPTVVYLTKSSPS
notes: HRD1 E3 ubiquitin ligase, mouse, N-terminal luminal loop, residues 21-42; also called N-terminal luminal loop of HRD1; HRD1 luminal fragment GST-fusion protein; source: GST-fusion protein immobilised on glutathione sepharose 4B beads
As for B1, the binding result in series [1] is “binds”.

B2: SEL1L^long (mouse SEL1L residues 337–554) (domain or fragment, Mus musculus, UniProt Q9Z2G6 337-554, looked up)
chain: RLPDEVENPGMNSGMLEEDLIQYYQFLAEKGDVQAQVGLGQLHLHGGRGVEQNHQRAFDYFNLAANAGNSHAMAFLGKMYSEGSDIVPQSNETALHYFKKAADMGNPVGQSGLGMAYLYGRGVQVNYDLALKYFQKAAEQGWVDGQLQLGSMYYNGIGVKRDYKQALKYFNLASQGGHILAFYNLAQMHASGTGVMRSCHTAVELFKNVCERGRWSER
notes: SEL1L, Mus musculus (790 amino acids), residues 337-554; also called the central region of SEL1L, residues 337–554; source: purified
As for B2, in series [2], the stoichiometry N – broadly, the number of molecules, sites or subunits per partner or assembly – amounted to 2.

B3: SEL1L^cent (mouse SEL1L central domain, SLR motifs 5 to 9, residues 348–533) (domain or fragment, Mus musculus, UniProt Q9Z2G6 348-533, looked up)
chain: NSGMLEEDLIQYYQFLAEKGDVQAQVGLGQLHLHGGRGVEQNHQRAFDYFNLAANAGNSHAMAFLGKMYSEGSDIVPQSNETALHYFKKAADMGNPVGQSGLGMAYLYGRGVQVNYDLALKYFQKAAEQGWVDGQLQLGSMYYNGIGVKRDYKQALKYFNLASQGGHILAFYNLAQMHASGTGVMR
notes: Forms a homodimer (crystal, cross-linking, AUC, SEC); also called wild-type SEL1L^cent; source: purified
For the molecule B3, in series [2], the “stoichiometry N” value is 2.

B4: SEL1L^cent Q460A (negative control point mutant) (domain or fragment, Mus musculus, UniProt Q9Z2G6 348-533, looked up)
chain: B3 chain with Q113A
notes: source: purified
With B4, the binding result in series [3] was “binds”.

B5: SEL1L^cent G513A (domain or fragment, Mus musculus, UniProt Q9Z2G6 348-533, looked up)
chain: B3 chain with G166A
notes: source: purified
As to B5, the binding result in series [3] is given as “binds”.

B6: SEL1L^cent G512A (domain or fragment, Mus musculus, UniProt Q9Z2G6 348-533, looked up)
chain: B3 chain with G165A
notes: source: purified
For the molecule B6, the binding result in series [3] is recorded as “binds”.
